{"source": "patent US20050048600A1", "target": "human LH3 protein with His-tag at the amino-terminus, produced in Sf9 cells (human) (UniProt O60568)", "sequence (O60568 25-738)": "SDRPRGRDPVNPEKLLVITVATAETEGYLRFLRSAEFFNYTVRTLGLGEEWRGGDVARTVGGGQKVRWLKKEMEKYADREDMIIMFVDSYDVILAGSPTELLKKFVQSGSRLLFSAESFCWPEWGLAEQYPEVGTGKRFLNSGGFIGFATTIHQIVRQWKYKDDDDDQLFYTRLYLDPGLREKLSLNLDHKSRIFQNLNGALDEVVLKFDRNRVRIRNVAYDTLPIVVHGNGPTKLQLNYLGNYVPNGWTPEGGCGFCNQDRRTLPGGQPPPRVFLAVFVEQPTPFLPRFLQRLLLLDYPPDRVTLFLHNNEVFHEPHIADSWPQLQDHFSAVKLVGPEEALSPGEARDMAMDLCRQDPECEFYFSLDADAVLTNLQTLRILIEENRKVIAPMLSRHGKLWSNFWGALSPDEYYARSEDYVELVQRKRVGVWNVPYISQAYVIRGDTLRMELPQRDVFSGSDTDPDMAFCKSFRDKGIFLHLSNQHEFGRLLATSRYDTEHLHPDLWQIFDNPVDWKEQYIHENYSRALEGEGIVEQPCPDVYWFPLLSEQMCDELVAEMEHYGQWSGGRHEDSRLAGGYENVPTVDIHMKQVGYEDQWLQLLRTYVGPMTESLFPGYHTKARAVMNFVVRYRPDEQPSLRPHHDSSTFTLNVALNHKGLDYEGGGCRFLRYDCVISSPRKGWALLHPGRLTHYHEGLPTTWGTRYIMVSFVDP", "assay": "cell-based or functional assay", "data": [{"substance": "monoclonal antibodies against His-tag (Clontech) (antibody)", "values": [{"measurement": "GGT activity in the presence of antibody (% of activity with nonimmune serum)", "result": 100, "unit": "%"}]}]}
